Results published in patent US20040054158A1.

Key:
[1] = target: GL50 (ICOS-ligand) on mouse cells (WEHI 231, undifferentiated CCE ES cells, Balb/C and RAG1 -/- splenocytes) (mouse) (UniProt Q9JHJ8); experiment: flow cytometry, Balb/C splenocytes, anti-CD45R/B220 stained subset
[2] = target: GL50 (ICOS-ligand) on mouse cells (WEHI 231, undifferentiated CCE ES cells, Balb/C and RAG1 -/- splenocytes) (mouse) (UniProt Q9JHJ8); experiment: flow cytometry, Balb/C splenocytes, anti-CD8a stained subset
[3] = target: GL50 (ICOS-ligand) on mouse cells (WEHI 231, undifferentiated CCE ES cells, Balb/C and RAG1 -/- splenocytes) (mouse) (UniProt Q9JHJ8); experiment: flow cytometry, RAG1-/- splenocytes, anti-CD11C stained subset
[4] = target: GL50 (ICOS-ligand) on mouse cells (WEHI 231, undifferentiated CCE ES cells, Balb/C and RAG1 -/- splenocytes) (mouse) (UniProt Q9JHJ8); experiment: flow cytometry, Balb/C splenocytes, anti-pan NK stained subset
[5] = target: GL50 (ICOS-ligand) on mouse cells (WEHI 231, undifferentiated CCE ES cells, Balb/C and RAG1 -/- splenocytes) (mouse) (UniProt Q9JHJ8); experiment: flow cytometry, Balb/C splenocytes, anti CD69 stained subset
[6] = target: GL50 (ICOS-ligand) on mouse cells (WEHI 231, undifferentiated CCE ES cells, Balb/C and RAG1 -/- splenocytes) (mouse) (UniProt Q9JHJ8); experiment: flow cytometry, Balb/C splenocytes, anti CD40 stained subset
[7] = target: GL50 (ICOS-ligand) on mouse cells (WEHI 231, undifferentiated CCE ES cells, Balb/C and RAG1 -/- splenocytes) (mouse) (UniProt Q9JHJ8); experiment: flow cytometry, RAG1-/- splenocytes, anti class II stained subset
[8] = target: GL50 (ICOS-ligand) on mouse cells (WEHI 231, undifferentiated CCE ES cells, Balb/C and RAG1 -/- splenocytes) (mouse) (UniProt Q9JHJ8); experiment: flow cytometry, Balb/C splenocytes, anti class II stained subset
[9] = target: GL50 (ICOS-ligand) on mouse cells (WEHI 231, undifferentiated CCE ES cells, Balb/C and RAG1 -/- splenocytes) (mouse) (UniProt Q9JHJ8); experiment: flow cytometry, Balb/C splenocytes, anti-CD11C stained subset
[10] = target: GL50 (ICOS-ligand) on mouse cells (WEHI 231, undifferentiated CCE ES cells, Balb/C and RAG1 -/- splenocytes) (mouse) (UniProt Q9JHJ8); experiment: flow cytometry, indirect staining of undifferentiated CCE ES cells
[11] = target: GL50 (ICOS-ligand) on mouse cells (WEHI 231, undifferentiated CCE ES cells, Balb/C and RAG1 -/- splenocytes) (mouse) (UniProt Q9JHJ8); experiment: flow cytometry, RAG1-/- splenocytes, CD11b+ subset (text value; the table prints 31%)
[12] = target: GL50 (ICOS-ligand) on mouse cells (WEHI 231, undifferentiated CCE ES cells, Balb/C and RAG1 -/- splenocytes) (mouse) (UniProt Q9JHJ8); experiment: flow cytometry, RAG1-/- splenocytes, anti-CD11B stained subset
[13] = target: GL50 (ICOS-ligand) on mouse cells (WEHI 231, undifferentiated CCE ES cells, Balb/C and RAG1 -/- splenocytes) (mouse) (UniProt Q9JHJ8); experiment: flow cytometry, Balb/C splenocytes, anti-CD4 stained subset
[14] = target: GL50 (ICOS-ligand) on mouse cells (WEHI 231, undifferentiated CCE ES cells, Balb/C and RAG1 -/- splenocytes) (mouse) (UniProt Q9JHJ8); experiment: flow cytometry, Balb/C splenocytes, anti-CD24 stained subset
[15] = target: GL50 (ICOS-ligand) on mouse cells (WEHI 231, undifferentiated CCE ES cells, Balb/C and RAG1 -/- splenocytes) (mouse) (UniProt Q9JHJ8); experiment: flow cytometry, Balb/C splenocytes, anti-CD11B stained subset
[16] = target: GL50 (ICOS-ligand) on mouse cells (WEHI 231, undifferentiated CCE ES cells, Balb/C and RAG1 -/- splenocytes) (mouse) (UniProt Q9JHJ8); experiment: flow cytometry, RAG1-/- splenocytes, anti CD69 stained subset
[17] = target: GL50 (ICOS-ligand) on mouse cells (WEHI 231, undifferentiated CCE ES cells, Balb/C and RAG1 -/- splenocytes) (mouse) (UniProt Q9JHJ8); experiment: flow cytometry, titered staining of WEHI 231 cells
[18] = target: GL50 (ICOS-ligand) on mouse cells (WEHI 231, undifferentiated CCE ES cells, Balb/C and RAG1 -/- splenocytes) (mouse) (UniProt Q9JHJ8); experiment: flow cytometry, RAG1-/- splenocytes, anti-CD4 stained subset
[19] = target: GL50 (ICOS-ligand) on mouse cells (WEHI 231, undifferentiated CCE ES cells, Balb/C and RAG1 -/- splenocytes) (mouse) (UniProt Q9JHJ8); experiment: flow cytometry, Balb/C splenocytes, anti-CD19 stained subset
[20] = target: GL50 (ICOS-ligand) on mouse cells (WEHI 231, undifferentiated CCE ES cells, Balb/C and RAG1 -/- splenocytes) (mouse) (UniProt Q9JHJ8); experiment: flow cytometry, RAG1-/- splenocytes, anti-CD24 stained subset
[21] = target: GL50 (ICOS-ligand) on mouse cells (WEHI 231, undifferentiated CCE ES cells, Balb/C and RAG1 -/- splenocytes) (mouse) (UniProt Q9JHJ8); experiment: flow cytometry, RAG1-/- splenocytes, anti-CD45R/B220 stained subset
[22] = target: GL50 (ICOS-ligand) on mouse cells (WEHI 231, undifferentiated CCE ES cells, Balb/C and RAG1 -/- splenocytes) (mouse) (UniProt Q9JHJ8); experiment: flow cytometry, RAG1-/- splenocytes, anti-pan NK stained subset
[23] = target: GL50 (ICOS-ligand) on mouse cells (WEHI 231, undifferentiated CCE ES cells, Balb/C and RAG1 -/- splenocytes) (mouse) (UniProt Q9JHJ8); experiment: flow cytometry, Balb/C splenocytes, anti-CD3 stained subset

B1: mICOS-mIgG2am (Fc fusion)
chain: EINGSADHRMFSFHNGGVQISCKYPETVQQLKMRLFREREVLCELTKTKGSGNAVSIKNPMLCLYHLSNNSVSFFLNNPDSSQGSYYFCSLSIFDPPPFQERNLSGGYLHIYESQLCCQLKLEPRGPTIKPCPPCKCPAPNLEGGPSVFIFPPKIKDVLMISLSPIVTCVVVDVSEDDPDVQISWFVNNVEVHTAQTQTHREDYNSTLRVVSALPIQHQDWMSGKAFACAVNNKDLPAPIERTISKPKGSVRAPQVYVLPPPEEEMTKKQVTLTCMVTDFMPEDIYVEWTNNGKTELNYKNTEPVLDSDGSYFMYSKLRVEKKNWVERNSYSCSVVHEGLHNHHTTKSFSRTPGK
B1 showed a % ICOS-Ig positive [1] of 97%, a % ICOS-Ig positive [2] of 10% and a % ICOS-Ig positive [3] of 55%. The % ICOS-Ig positive [4] was 20%, the % ICOS-Ig positive [5] was 25% and the % ICOS-Ig positive [6] was 97%. For the same binder, the % ICOS-Ig positive [7] was 3%, the % ICOS-Ig positive [8] was 95% and the % ICOS-Ig positive [9] was 43%. It also gave a fluorescence shift over background [10] of 0.5 log, a % ICOS-Ig positive [11] of 35% and a % ICOS-Ig positive [12] of 31%. The % ICOS-Ig positive [13] was 8%, the % ICOS-Ig positive [14] was 94% and the % ICOS-Ig positive [15] was 26%. For the same binder, the % ICOS-Ig positive [16] was 5%, the concentration from which staining was minimally detectable [17] was 1 µg/mL and the % ICOS-Ig positive [18] was 45%. For the same binder, the % ICOS-Ig positive [19] was 97%, the % ICOS-Ig positive [20] was 28% and the % ICOS-Ig positive [21] was 5%. It also gave a % ICOS-Ig positive [22] of 3% and a % ICOS-Ig positive [23] of 10%.
